This is an account of results in US9549967B2, “Regulation of sodium channels by PLUNC proteins” (The University of North Carolina at Chapel Hill, priority 2009, dated 2017).

The test has as its target T1, α and γ ENaC (Rattus norvegicus, UniProt P37089+P37091).
T1 construct: expressed in transfected cells; host or cells: Xenopus laevis oocytes (cRNA injection)
T1 sequence (P37089 1-698): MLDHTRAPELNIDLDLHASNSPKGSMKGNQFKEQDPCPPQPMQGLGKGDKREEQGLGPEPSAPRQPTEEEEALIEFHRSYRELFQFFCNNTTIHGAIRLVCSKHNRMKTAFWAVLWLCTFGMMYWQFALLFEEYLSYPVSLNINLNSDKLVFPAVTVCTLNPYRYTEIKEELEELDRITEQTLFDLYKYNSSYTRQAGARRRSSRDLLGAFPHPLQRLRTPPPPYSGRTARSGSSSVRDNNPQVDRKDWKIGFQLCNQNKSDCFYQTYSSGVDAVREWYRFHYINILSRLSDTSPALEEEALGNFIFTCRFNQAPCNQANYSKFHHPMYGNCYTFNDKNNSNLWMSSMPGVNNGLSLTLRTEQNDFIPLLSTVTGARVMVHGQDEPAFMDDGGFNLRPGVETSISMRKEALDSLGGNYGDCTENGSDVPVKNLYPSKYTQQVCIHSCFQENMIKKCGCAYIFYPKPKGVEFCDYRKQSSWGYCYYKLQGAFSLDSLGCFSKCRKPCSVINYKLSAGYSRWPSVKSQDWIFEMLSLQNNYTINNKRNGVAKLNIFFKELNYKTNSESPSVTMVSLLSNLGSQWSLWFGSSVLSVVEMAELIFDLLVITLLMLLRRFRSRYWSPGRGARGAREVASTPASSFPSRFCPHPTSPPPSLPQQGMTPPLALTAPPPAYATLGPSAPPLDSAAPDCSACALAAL
T1 sequence (P37090 1-638 partner): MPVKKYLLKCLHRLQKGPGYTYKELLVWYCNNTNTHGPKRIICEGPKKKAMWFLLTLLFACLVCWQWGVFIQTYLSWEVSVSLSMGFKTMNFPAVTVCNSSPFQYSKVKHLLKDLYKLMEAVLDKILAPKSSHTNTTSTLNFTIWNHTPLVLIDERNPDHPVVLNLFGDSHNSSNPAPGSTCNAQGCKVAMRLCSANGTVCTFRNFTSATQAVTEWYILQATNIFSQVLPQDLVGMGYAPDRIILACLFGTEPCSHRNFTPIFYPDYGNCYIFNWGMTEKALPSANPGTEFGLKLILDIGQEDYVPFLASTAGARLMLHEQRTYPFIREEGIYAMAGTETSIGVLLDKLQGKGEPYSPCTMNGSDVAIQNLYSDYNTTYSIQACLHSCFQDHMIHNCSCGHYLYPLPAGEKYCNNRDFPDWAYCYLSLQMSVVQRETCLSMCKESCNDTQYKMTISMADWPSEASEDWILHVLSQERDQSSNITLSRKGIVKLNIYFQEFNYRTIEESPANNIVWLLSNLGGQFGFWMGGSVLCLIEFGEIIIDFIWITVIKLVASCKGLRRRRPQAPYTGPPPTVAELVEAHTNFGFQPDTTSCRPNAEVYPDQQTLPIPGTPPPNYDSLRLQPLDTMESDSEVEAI
T1 sequence (P37091 1-650): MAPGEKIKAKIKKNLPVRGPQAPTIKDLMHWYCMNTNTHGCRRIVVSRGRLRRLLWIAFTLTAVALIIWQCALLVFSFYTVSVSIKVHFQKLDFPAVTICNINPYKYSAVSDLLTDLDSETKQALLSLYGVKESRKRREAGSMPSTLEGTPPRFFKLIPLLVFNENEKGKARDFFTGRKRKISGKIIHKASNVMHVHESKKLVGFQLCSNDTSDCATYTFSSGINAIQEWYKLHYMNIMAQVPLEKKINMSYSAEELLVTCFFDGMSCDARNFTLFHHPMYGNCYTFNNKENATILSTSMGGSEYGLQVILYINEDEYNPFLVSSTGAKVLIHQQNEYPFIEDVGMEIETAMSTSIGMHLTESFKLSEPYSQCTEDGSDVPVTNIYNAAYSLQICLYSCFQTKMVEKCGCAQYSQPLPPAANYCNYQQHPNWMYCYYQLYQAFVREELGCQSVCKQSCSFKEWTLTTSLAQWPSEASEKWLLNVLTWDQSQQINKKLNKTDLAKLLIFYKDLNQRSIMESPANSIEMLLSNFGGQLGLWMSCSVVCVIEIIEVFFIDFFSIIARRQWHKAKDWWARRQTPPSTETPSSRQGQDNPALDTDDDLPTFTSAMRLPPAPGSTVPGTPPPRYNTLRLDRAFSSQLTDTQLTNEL
Kind of test: ENaC cleavage by CAP2 in Xenopus oocytes (Western blot, V5 antibody). To be noted: αβγENaC, CAP2 and SPLUNC1 co-expressed in oocytes. Format: cell-based. Here is the method: Western Blotting: Airway surface liquid collected as described above was also placed in protease-inhibitor cocktail (Roche) for Western blotting. The protein concentration was determined using the BCA Assay (Pierce). To obtain SPLUNC1 from Xenopus oocytes, oocytes were lysed in Laemmli buffer or oocyte media was directly sampled and placed in Laemmli buffer. Proteins were resolved using SDS-PAGE and transferred to a Polyvinylidene Fluoride (PVDF) membrane. The membrane was then probed using αSplunc1 or αV5 antibodies and a Donkey anti-Mouse HRP antibody (R&D). The blots were then incubated with ECL reagents (Pierce).
Co-Immunoprecipitation: Xenopus oocytes were injected with either HA-N-Terminus or V5-C-Terminus (HA-NT/V5-CT) tagged subunits in combination with wild type (WT) untagged rat αβγENaC subunits (0.3 ng cRNA each) with or without V5-tagged SPLUNC1 and CAP2 (1 ng cRNA each). After 24 h, 40 eggs per experimental condition were lysed with buffer containing (in mM): 20 Tris, 50 NaCl, 50 NaF, 10 β-glycerophosphate, 5 Na4P2O7 pyrophosphate, 1 EDTA, pH 7.5 and protease inhibitors (complete, Roche), aprotinin (Sigma). Cell lysates were prepared by passing the eggs through a 27 G1/2 needle twice and by centrifugation at 3,600 rpm for 10 minutes at 4° C. Supernatants were transferred to new tubes and samples were spun at 14,000 rpm for 20 minutes at 4° C. […]

B1: SPLUNC1: human SPLUNC1, 256 amino acid secreted PLUNC protein (SEQ ID NO:1); rSPLUNC1 = V5/6His-tagged protein purified from HEK293 media (protein, listed as Homo sapiens)
chain: MFQTGGLIVFYGLLAQTMAQFGGLPVPLDQTLPLNVNPALPLSPTGLAGSLTNALSNGLLSGGLLGILENLPLLDILKPGGGTSGGLLGGLLGKVTSVIPGLNNIIDIKVTDPQLLELGLVQSPDGHRLYVTIPLGIKLQVNTPLVGASLLRLAVKLDITAEILAVRDKQERIHLVLGDCTHSPGSLQISLLDGLGPLPIQGLLDSLTGILNKVLPELVQGNVCPLVNEVLRGLDITLVHDIVNMLIHGLQFVIKV
modifications: V5/6His tag
notes: rSPLUNC1 = V5/6His-tagged protein purified from HEK293 media
For the molecule B1, the “α and γ ENaC cleavage by CAP2” value is “only full-length α and γ ENaC subunits could be observed”.
